Reference: patent publication US20250361268A1, “NOVEL ANTI-INFLAMMATORY PEPTIDE AND USE THEREOF” (NOVACELL TECHNOLOGY INC., priority 2022, published 2025)

T1: FPR1 (UniProt P21462 1-350, limits assumed)
T1 sequence (looked up): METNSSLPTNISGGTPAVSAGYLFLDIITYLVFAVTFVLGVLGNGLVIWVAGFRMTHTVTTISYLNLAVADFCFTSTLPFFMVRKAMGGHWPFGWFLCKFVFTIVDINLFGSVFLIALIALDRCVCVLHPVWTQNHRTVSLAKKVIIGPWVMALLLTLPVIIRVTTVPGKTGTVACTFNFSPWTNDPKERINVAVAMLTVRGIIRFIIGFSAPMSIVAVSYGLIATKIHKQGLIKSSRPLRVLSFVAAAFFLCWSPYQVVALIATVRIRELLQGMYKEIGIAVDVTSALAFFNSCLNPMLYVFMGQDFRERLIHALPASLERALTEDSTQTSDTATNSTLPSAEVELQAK

T2: formyl peptide receptor 2 (FPR2) (UniProt P25090 1-351, limits assumed)
T2 sequence (looked up): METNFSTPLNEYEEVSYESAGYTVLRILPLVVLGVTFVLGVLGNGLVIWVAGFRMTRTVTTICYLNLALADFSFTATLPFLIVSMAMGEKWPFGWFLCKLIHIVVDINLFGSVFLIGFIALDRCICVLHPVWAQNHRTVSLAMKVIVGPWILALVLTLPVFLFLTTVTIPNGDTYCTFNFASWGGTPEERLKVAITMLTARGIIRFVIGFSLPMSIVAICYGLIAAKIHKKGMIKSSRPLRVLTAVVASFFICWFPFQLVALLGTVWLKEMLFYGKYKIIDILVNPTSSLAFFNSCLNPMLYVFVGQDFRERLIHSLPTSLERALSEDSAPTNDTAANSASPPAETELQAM


Target: T1, FPR1
Assay: cell-based or functional assay

Row | EC50 for [Ca2+] [µM] | Binder
1 | > 10 | MKYKVM (HELM PEPTIDE1{[CCCCCCCC(=O)[*:2]].M.K.Y.K.V.[dM].[am]}$$$$V2.0; SMILES CCCCCCCC(=O)N[C@@H](CCSC)C(=O)N[C@@H](CCCCN)C(=O)N[C@@H](Cc1ccc(O)cc1)C(=O)N[C@@H](CCCCN)C(=O)N[C@H](C(=O)N[C@H](CCSC)C(N)=O)C(C)C) [peptide of SEQ ID NO 20]
2 | > 10 | RMRYKYM (HELM PEPTIDE1{[ac].R.M.R.Y.K.Y.[dM].[am]}$$$$V2.0; SMILES CSCC[C@H](NC(=O)[C@H](CCCNC(=N)N)NC(C)=O)C(=O)N[C@@H](CCCNC(=N)N)C(=O)N[C@@H](Cc1ccc(O)cc1)C(=O)N[C@@H](CCCCN)C(=O)N[C@@H](Cc1ccc(O)cc1)C(=O)N[C@H](CCSC)C(N)=O) [peptide of SEQ ID NO 39]
3 | > 10 | MRYKYM (HELM PEPTIDE1{[ac].M.R.Y.K.Y.[dM].[am]}$$$$V2.0; SMILES CSCC[C@H](NC(C)=O)C(=O)N[C@@H](CCCNC(=N)N)C(=O)N[C@@H](Cc1ccc(O)cc1)C(=O)N[C@@H](CCCCN)C(=O)N[C@@H](Cc1ccc(O)cc1)C(=O)N[C@H](CCSC)C(N)=O) [peptide of SEQ ID NO 42]
4 | > 10 | RWRYNYM (HELM PEPTIDE1{R.W.R.Y.N.Y.[dM].[am]}$$$$V2.0; N-terminus assumed; SMILES CSCC[C@@H](NC(=O)[C@H](Cc1ccc(O)cc1)NC(=O)[C@H](CC(N)=O)NC(=O)[C@H](Cc1ccc(O)cc1)NC(=O)[C@H](CCCNC(=N)N)NC(=O)[C@H](Cc1c[nH]c2ccccc12)NC(=O)[C@@H](N)CCCNC(=N)N)C(N)=O) [peptide of SEQ ID NO 155]
5 | > 10 | RWRYRIM (HELM PEPTIDE1{R.W.R.Y.R.I.[dM].[am]}$$$$V2.0; N-terminus assumed; SMILES CC[C@H](C)[C@H](NC(=O)[C@H](CCCNC(=N)N)NC(=O)[C@H](Cc1ccc(O)cc1)NC(=O)[C@H](CCCNC(=N)N)NC(=O)[C@H](Cc1c[nH]c2ccccc12)NC(=O)[C@@H](N)CCCNC(=N)N)C(=O)N[C@H](CCSC)C(N)=O) [peptide of SEQ ID NO 152]
6 | > 10 | RWRYRTM (HELM PEPTIDE1{R.W.R.Y.R.T.[dM].[am]}$$$$V2.0; N-terminus assumed; SMILES CSCC[C@@H](NC(=O)[C@@H](NC(=O)[C@H](CCCNC(=N)N)NC(=O)[C@H](Cc1ccc(O)cc1)NC(=O)[C@H](CCCNC(=N)N)NC(=O)[C@H](Cc1c[nH]c2ccccc12)NC(=O)[C@@H](N)CCCNC(=N)N)[C@@H](C)O)C(N)=O) [peptide of SEQ ID NO 153]
7 | > 10 | RMRYKYM (HELM PEPTIDE1{[CCCCCCCC(=O)[*:2]].R.M.R.Y.K.Y.[dM].[am]}$$$$V2.0; SMILES CCCCCCCC(=O)N[C@@H](CCCNC(=N)N)C(=O)N[C@@H](CCSC)C(=O)N[C@@H](CCCNC(=N)N)C(=O)N[C@@H](Cc1ccc(O)cc1)C(=O)N[C@@H](CCCCN)C(=O)N[C@@H](Cc1ccc(O)cc1)C(=O)N[C@H](CCSC)C(N)=O) [peptide of SEQ ID NO 40]
8 | > 10 | RWRYKYM (HELM PEPTIDE1{[CCCCCCCC(=O)[*:2]].R.W.R.Y.K.Y.[dM].[am]}$$$$V2.0; SMILES CCCCCCCC(=O)N[C@@H](CCCNC(=N)N)C(=O)N[C@@H](Cc1c[nH]c2ccccc12)C(=O)N[C@@H](CCCNC(=N)N)C(=O)N[C@@H](Cc1ccc(O)cc1)C(=O)N[C@@H](CCCCN)C(=O)N[C@@H](Cc1ccc(O)cc1)C(=O)N[C@H](CCSC)C(N)=O) [peptide of SEQ ID NO 34]
9 | > 10 | MRYKVM (HELM PEPTIDE1{[CCCCCCCC(=O)[*:2]].M.R.Y.K.V.[dM].[am]}$$$$V2.0; SMILES CCCCCCCC(=O)N[C@@H](CCSC)C(=O)N[C@@H](CCCNC(=N)N)C(=O)N[C@@H](Cc1ccc(O)cc1)C(=O)N[C@@H](CCCCN)C(=O)N[C@H](C(=O)N[C@H](CCSC)C(N)=O)C(C)C) [peptide of SEQ ID NO 16]
10 | > 10 | RWRYKYM (HELM PEPTIDE1{R.W.R.Y.K.Y.[dM].[am]}$$$$V2.0; N-terminus assumed; SMILES CSCC[C@@H](NC(=O)[C@H](Cc1ccc(O)cc1)NC(=O)[C@H](CCCCN)NC(=O)[C@H](Cc1ccc(O)cc1)NC(=O)[C@H](CCCNC(=N)N)NC(=O)[C@H](Cc1c[nH]c2ccccc12)NC(=O)[C@@H](N)CCCNC(=N)N)C(N)=O) [peptide of SEQ ID NO 32]

Target: T2, formyl peptide receptor 2 (FPR2)
Assay: cell-based or functional assay

Row | EC50 for [Ca2+] [µM] | Binder
11 | < 0.01 | RWRYKPM (HELM PEPTIDE1{[CCCC(=O)[*:2]].R.W.R.Y.K.P.[dM].[am]}$$$$V2.0; SMILES CCCC(=O)N[C@@H](CCCNC(=N)N)C(=O)N[C@@H](Cc1c[nH]c2ccccc12)C(=O)N[C@@H](CCCNC(=N)N)C(=O)N[C@@H](Cc1ccc(O)cc1)C(=O)N[C@@H](CCCCN)C(=O)N1CCC[C@H]1C(=O)N[C@H](CCSC)C(N)=O) [peptide of SEQ ID NO 75]
12 | < 0.01 | HMRYWYM (HELM PEPTIDE1{[CCCC(=O)[*:2]].H.M.R.Y.W.Y.[dM].[am]}$$$$V2.0; SMILES CCCC(=O)N[C@@H](Cc1c[nH]cn1)C(=O)N[C@@H](CCSC)C(=O)N[C@@H](CCCNC(=N)N)C(=O)N[C@@H](Cc1ccc(O)cc1)C(=O)N[C@@H](Cc1c[nH]c2ccccc12)C(=O)N[C@@H](Cc1ccc(O)cc1)C(=O)N[C@H](CCSC)C(N)=O) [peptide of SEQ ID NO 93]
13 | < 0.01 | MRYYVM (HELM PEPTIDE1{M.R.Y.Y.V.[dM].[am]}$$$$V2.0; N-terminus assumed; SMILES CSCC[C@H](N)C(=O)N[C@@H](CCCNC(=N)N)C(=O)N[C@@H](Cc1ccc(O)cc1)C(=O)N[C@@H](Cc1ccc(O)cc1)C(=O)N[C@H](C(=O)N[C@H](CCSC)C(N)=O)C(C)C) [peptide of SEQ ID NO 100]
14 | < 0.01 | RWRYYVM (HELM PEPTIDE1{R.W.R.Y.Y.V.[dM].[am]}$$$$V2.0; N-terminus assumed; SMILES CSCC[C@@H](NC(=O)[C@@H](NC(=O)[C@H](Cc1ccc(O)cc1)NC(=O)[C@H](Cc1ccc(O)cc1)NC(=O)[C@H](CCCNC(=N)N)NC(=O)[C@H](Cc1c[nH]c2ccccc12)NC(=O)[C@@H](N)CCCNC(=N)N)C(C)C)C(N)=O) [peptide of SEQ ID NO 94]
15 | < 0.01 | RWRYWVM (HELM PEPTIDE1{R.W.R.Y.W.V.[dM].[am]}$$$$V2.0; N-terminus assumed; SMILES CSCC[C@@H](NC(=O)[C@@H](NC(=O)[C@H](Cc1c[nH]c2ccccc12)NC(=O)[C@H](Cc1ccc(O)cc1)NC(=O)[C@H](CCCNC(=N)N)NC(=O)[C@H](Cc1c[nH]c2ccccc12)NC(=O)[C@@H](N)CCCNC(=N)N)C(C)C)C(N)=O) [peptide of SEQ ID NO 101]
16 | < 0.01 | RMRYYVM (HELM PEPTIDE1{[ac].R.M.R.Y.Y.V.[dM].[am]}$$$$V2.0; SMILES CSCC[C@H](NC(=O)[C@H](CCCNC(=N)N)NC(C)=O)C(=O)N[C@@H](CCCNC(=N)N)C(=O)N[C@@H](Cc1ccc(O)cc1)C(=O)N[C@@H](Cc1ccc(O)cc1)C(=O)N[C@H](C(=O)N[C@H](CCSC)C(N)=O)C(C)C) [peptide of SEQ ID NO 98]
17 | < 0.01 | KWKYYVM (HELM PEPTIDE1{K.W.K.Y.Y.V.[dM].[am]}$$$$V2.0; N-terminus assumed; SMILES CSCC[C@@H](NC(=O)[C@@H](NC(=O)[C@H](Cc1ccc(O)cc1)NC(=O)[C@H](Cc1ccc(O)cc1)NC(=O)[C@H](CCCCN)NC(=O)[C@H](Cc1c[nH]c2ccccc12)NC(=O)[C@@H](N)CCCCN)C(C)C)C(N)=O) [peptide of SEQ ID NO 96]
18 | < 0.01 | RMRYYVM (HELM PEPTIDE1{R.M.R.Y.Y.V.[dM].[am]}$$$$V2.0; N-terminus assumed; SMILES CSCC[C@H](NC(=O)[C@@H](N)CCCNC(=N)N)C(=O)N[C@@H](CCCNC(=N)N)C(=O)N[C@@H](Cc1ccc(O)cc1)C(=O)N[C@@H](Cc1ccc(O)cc1)C(=O)N[C@H](C(=O)N[C@H](CCSC)C(N)=O)C(C)C) [peptide of SEQ ID NO 97]
19 | < 0.01 | WRYKPM (HELM PEPTIDE1{[ac].W.R.Y.K.P.[dM].[am]}$$$$V2.0; SMILES CSCC[C@@H](NC(=O)[C@@H]1CCCN1C(=O)[C@H](CCCCN)NC(=O)[C@H](Cc1ccc(O)cc1)NC(=O)[C@H](CCCNC(=N)N)NC(=O)[C@H](Cc1c[nH]c2ccccc12)NC(C)=O)C(N)=O) [peptide of SEQ ID NO 76]
